Results published in PMC7743911 (Nature communications, 2015).
Numbering of substitutions follows the chain as printed. Where “and” joins values, the source holds several entries; their conditions need not be identical. Identical values can stand only once. Non-standard residues stand in square brackets, D forms with d. No end group written: not given here. pY = N[C@@H](Cc1ccc(OP(=O)(O)O)cc1)C(=O)O

Columns and labels:
[1] = biological target: T1, STAT5B wild type (residues 128 to 717), non-phosphorylated (human, UniProt P51692 128-717); assay: SPR
T1 sequence (looked up): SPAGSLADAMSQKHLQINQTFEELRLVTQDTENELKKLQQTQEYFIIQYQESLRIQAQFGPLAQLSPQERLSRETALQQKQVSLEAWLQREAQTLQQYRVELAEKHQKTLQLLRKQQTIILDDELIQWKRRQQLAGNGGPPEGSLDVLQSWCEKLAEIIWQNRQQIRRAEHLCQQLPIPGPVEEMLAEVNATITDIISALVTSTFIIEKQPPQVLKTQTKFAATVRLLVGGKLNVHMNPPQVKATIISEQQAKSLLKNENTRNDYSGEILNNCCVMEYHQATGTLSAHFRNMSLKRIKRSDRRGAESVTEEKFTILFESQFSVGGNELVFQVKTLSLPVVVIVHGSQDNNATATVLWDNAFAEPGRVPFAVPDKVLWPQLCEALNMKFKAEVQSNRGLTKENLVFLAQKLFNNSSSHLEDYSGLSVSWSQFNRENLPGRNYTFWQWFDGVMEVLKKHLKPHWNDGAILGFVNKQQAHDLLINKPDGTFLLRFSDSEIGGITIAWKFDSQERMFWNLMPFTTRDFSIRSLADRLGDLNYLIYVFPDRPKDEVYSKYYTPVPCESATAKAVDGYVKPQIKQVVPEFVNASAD

[2] = biological target: T2, STAT5B N642H mutant (residues 128 to 717), non-phosphorylated (human, UniProt P51692 128-717, N642H); assay: SPR
T2 sequence (looked up): T1 sequence (looked up) with N515H

KAVDG[pY]VKPQI [STAT5B phosphopeptide KAVDG(p)YVKPQI] was tested, and the Kd [1] was 15.6 µM and 14 µM and the Kd [2] was 3.23 µM and 2.9 µM.
